Source: patent US8492329B2, “Bioactive peptides and methods of using same” (Compugen Ltd., priority 2007, dated 2013)
Entries after “also recorded” stand apart in the source; their conditions may differ. No end group written: not given here.

What was measured:
GPR135 (RXFP3) = target: T1, GPR135 (RXFP3) (Homo sapiens, UniProt Q9NSD7); test: cAMP HTRF assay on Euroscreen RXFP3 recombinant cells; type: cell-based; conditions: increasing concentrations, 30 min; FIG. 5
T1 construct: host or cells: CHO-K1 recombinant cell line (Euroscreen)
T1 sequence (Q9NSD7 1-469): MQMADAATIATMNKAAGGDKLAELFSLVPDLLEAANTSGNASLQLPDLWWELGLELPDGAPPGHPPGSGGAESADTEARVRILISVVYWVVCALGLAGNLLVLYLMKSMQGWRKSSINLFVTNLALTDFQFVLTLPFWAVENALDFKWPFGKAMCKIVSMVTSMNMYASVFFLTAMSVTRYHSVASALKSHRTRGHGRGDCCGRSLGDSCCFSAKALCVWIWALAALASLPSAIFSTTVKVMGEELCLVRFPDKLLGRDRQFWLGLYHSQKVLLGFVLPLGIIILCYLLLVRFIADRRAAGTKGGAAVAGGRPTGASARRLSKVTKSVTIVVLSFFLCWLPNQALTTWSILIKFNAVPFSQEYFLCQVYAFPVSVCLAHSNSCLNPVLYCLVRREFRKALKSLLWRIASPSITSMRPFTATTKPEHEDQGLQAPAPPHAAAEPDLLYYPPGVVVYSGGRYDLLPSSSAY
Experimental: The ability of P59C13V (SEQ ID NO: 6) and H3 Relaxin to activate CHO-K1 cells transfected by GPR135 (RXFP3), which is a non-LGR, Relaxin related receptor, was tested. The assay was performed by Euroscreen. For cAMP concentration analysis, Euroscreen cat. ES-656-A-cells (RXFP3, Euroscreen cat. ES-656-A) grown to mid-log phase in culture media without antibiotics were detached with PBS-EDTA, centrifuged and resuspended in assay buffer at a concentration of […]. The test was performed in 96 well plates. For agonist testing, 12 μl of cells (5×10^3 cells/well) were mixed with 12 μl of agonist Either H3-Relaxin or P59C13V (P59) (SEQ ID NO: 6) at increasing concentrations. The plates were then incubated for 30 min at room temperature. After addition of the lysis buffer, cAMP concentrations were estimated, according to the manufacturer specification, with the HTRF kit from Cis-Bio International (cat no 62AM2PEB).
.Relaxin 3 Fit (Eeuroscreen) was used as a positive control. RXFP3 (GPCR135) transfected cells were challenged with increasing concentrations of Relaxin 3 (H3 Relaxin—as a positive control—[…]) or P59C13V (P59) (SEQ ID NO: 6) (1 nM-3 uM).

LGR6 = target: T2, LGR6 (Homo sapiens, UniProt Q9HBX8); test: cAMP accumulation in CHO-K1 cells transiently transfected with LGR6; type: cell-based; conditions: 1 uM, without Forskolin, FIG. 3A
T2 construct: expressed in transfected cells; host or cells: CHO-K1 (transient)
T2 sequence (Q9HBX8 25-967): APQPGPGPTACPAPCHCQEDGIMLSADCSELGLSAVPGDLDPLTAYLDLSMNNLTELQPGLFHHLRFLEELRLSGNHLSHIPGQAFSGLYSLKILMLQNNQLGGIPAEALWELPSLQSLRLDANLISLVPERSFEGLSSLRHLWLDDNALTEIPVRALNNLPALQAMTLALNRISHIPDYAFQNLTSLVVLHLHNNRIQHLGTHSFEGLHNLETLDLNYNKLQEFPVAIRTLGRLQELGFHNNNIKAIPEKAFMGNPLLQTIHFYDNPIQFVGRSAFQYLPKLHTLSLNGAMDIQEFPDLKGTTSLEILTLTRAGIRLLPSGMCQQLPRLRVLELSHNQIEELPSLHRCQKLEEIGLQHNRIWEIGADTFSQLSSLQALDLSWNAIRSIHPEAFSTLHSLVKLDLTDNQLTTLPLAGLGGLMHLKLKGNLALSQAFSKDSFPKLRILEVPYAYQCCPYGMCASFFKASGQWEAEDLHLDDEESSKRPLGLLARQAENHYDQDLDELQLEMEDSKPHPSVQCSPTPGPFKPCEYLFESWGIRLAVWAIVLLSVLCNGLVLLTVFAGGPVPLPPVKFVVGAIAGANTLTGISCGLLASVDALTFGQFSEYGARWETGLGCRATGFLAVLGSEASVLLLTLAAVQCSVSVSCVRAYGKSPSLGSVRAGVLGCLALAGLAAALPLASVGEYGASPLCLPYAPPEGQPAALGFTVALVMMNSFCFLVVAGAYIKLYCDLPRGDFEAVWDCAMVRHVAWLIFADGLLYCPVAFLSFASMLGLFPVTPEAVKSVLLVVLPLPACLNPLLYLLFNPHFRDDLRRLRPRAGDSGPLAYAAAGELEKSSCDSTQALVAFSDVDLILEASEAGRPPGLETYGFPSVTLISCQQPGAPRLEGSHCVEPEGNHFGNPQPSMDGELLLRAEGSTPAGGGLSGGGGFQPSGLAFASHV
Experimental: [The procedure below names another target; the source says it served here with some conditions changed.] LGR7 (RXFP1) or LGR8 (RXFP2) were transiently transfected into CHO-K1 cells as follows: Cells (12 million) were plated into T75 flasks on the day preceding transfection. Cells were transfected with a GPCR DNA and Gα16 using a lipid technique according to the manufacturer's recommendation. Cells were transfected for 5 hours, then re-plated into 96-well dishes (60,000 cells per well) and grown overnight. Transfected cells were plated into 24 wells of a 96-well plate. Cells were pre-treated with 0.5 mM IBMX (stimulation buffer) for 10 min at 37° C., then stimulated with either a positive control (Relaxin 2) or a candidate peptide (for Gs functional examination), followed by stimulation or a preincubation with 10 μM forskolin (for Gi functional examination). Following a 20 minutes stimulation by incubation with 1 μM of either positive control or the tested peptides, either with or without forskolin, intracellular cAMP was assayed using the Hit Hunter cAMP kit (DiscoveRx Corporation) according to the manufacturer's recommended protocol. Data was converted to nmol of cAMP by running a standard cAMP curve.

| cAMP activation (Gs) of RXFP3 (GPR135 (RXFP3)) | Substance | Gs activation (cAMP accumulation) (LGR6) |
| --- | --- | --- |
| didn't show any cAMP activation (Gs) | GQKGQVGPPGAAVRRAYAAFSV [Peptide P59C13V] |  |
|  | GQKGQVGPPGAAVRRAYAAFSVGRRAYAAFSV-OH [Peptide P74C13V] | significant increase in cAMP accumulation; also recorded: slight Gs activation |
